From article PMC3597501 (2013) come the findings set out here.

For this assay, the target named is T1, GST-TUD1 (Oryza sativa subsp. japonica (Rice), UniProt Q10PI9).
T1 chain: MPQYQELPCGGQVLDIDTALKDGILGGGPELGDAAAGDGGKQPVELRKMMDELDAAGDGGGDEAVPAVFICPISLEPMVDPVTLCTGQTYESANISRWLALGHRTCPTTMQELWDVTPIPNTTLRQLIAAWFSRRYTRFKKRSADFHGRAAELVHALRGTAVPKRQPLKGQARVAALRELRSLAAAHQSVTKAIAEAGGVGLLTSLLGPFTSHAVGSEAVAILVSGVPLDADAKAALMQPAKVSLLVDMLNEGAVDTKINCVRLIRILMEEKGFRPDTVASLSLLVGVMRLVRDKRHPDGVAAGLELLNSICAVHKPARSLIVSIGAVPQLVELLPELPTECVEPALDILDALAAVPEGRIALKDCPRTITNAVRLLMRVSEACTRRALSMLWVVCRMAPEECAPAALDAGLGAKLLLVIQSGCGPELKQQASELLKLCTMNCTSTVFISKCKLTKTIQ
The assay is described as follows: GST pull-down.

B1: D1-tagged His (purified D1 fusion protein) (protein)
chain: MGSSCSRSHSLSEAETTKNAKSADIDRRILQETKAEQHIHKLLLLGAGESGKSTIFKQIKLLFQTGFDEAELRSYTSVIHANVYQTIKILYEGAKELSQVESDSSKYVISPDNQEIGEKLSDIDGRLDYPLLNKELVLDVKRLWQDPAIQETYLRGSILQLPDCAQYFMENLDRLAEAGYVPTKEDVLYARVRTNGVVQIQFSPVGENKRGGEVYRLYDVGGQRNERRKWIHLFEGVNAVIFCAAISEYDQMLFEDETKNRMMETKELFDWVLKQRCFEKTSFILFLNKFDIFEKKIQKVPLSVCEWFKDYQPIAPGKQEVEHAYEFVKKKFEELYFQSSKPDRVDRVFKIYRTTALDQKLVKKTFKLIDESMRRSREGT
For the molecule B1, the binding result was “binds”.
